The source of these data is the Immune Epitope Database (IEDB).

The target of one assay is HLA-A*01:01. In words: IEDB peptide-MHC binding, purified MHC/direct/fluorescence; filed as Kd, often an IC50 or EC50 that approximates it; ≥ and ≤ were set here for values at or beyond the usual limits of such assays.
For the next assay, the target named is HLA-A*30:01. Described as above. The conditions noted are these: source organism: Vibrio cholerae V52.
For the next assay, the target named is HLA-B*07:02. In words: IEDB peptide-MHC binding, purified MHC/competitive/fluorescence; ≥ and ≤ were set here for values at or beyond the usual limits of such assays.
Assay [1] deals with HLA-B*15:01. The assay is described as above. The conditions noted are these: source organism: Sudan ebolavirus.
In another assay the target is HLA-A*24:02. The assay is described as above.
Assay [2] addresses HLA-A*02:01. The assay is described as above. The conditions noted are these: source organism: Sudan ebolavirus.
The next assay deals with HLA-A*23:01. Put plainly: IEDB peptide-MHC binding, purified MHC/direct/fluorescence; filed as Kd, often an IC50 or EC50 that approximates it; ≥ and ≤ were set here for values at or beyond the usual limits of such assays.
In a further assay the target is HLA-A*24:03. The assay is described as above.
Another assay has as its target HLA-A*31:01. Put plainly: IEDB peptide-MHC binding, purified MHC/competitive/fluorescence; filed as Kd, often an IC50 or EC50 that approximates it; ≥ and ≤ were set here for values at or beyond the usual limits of such assays. The conditions noted are these: source organism: Zaire ebolavirus.
The next assay deals with HLA-A*26:01. Described as above.
The target in the next assay is HLA-B*27:03. The assay is described as above.
The next assay has as its target HLA-B*57:01. Described as above.
In the next assay the target is HLA-B*46:01. The description is as above.
The target of assay [3] is HLA-B*15:01. The assay is described as above. The conditions noted are these: source organism: Zaire ebolavirus.
The target of the next assay is HLA-B*15:17. Described as above. The conditions noted are these: source organism: Zaire ebolavirus.
Assay [4] has as its target HLA-A*02:01. The assay is described as above.
The next assay concerns the target HLA-B*18:01. Described as above.
A further assay has as its target HLA-A*69:01. The description is as above.
The target in another assay is HLA-B*51:01. Described as above.
The next assay has as its target HLA-B*39:01. Described as above.
The target in the next assay is HLA-A*02:19. Put plainly: IEDB peptide-MHC binding, purified MHC/direct/fluorescence; filed as Kd, often an IC50 or EC50 that approximates it; ≥ and ≤ were set here for values at or beyond the usual limits of such assays.
A further assay addresses HLA-A*02:16. The description is as above.
Another assay deals with HLA-A*02:12. The description is as above.
A further assay concerns the target HLA-A*02:03. The assay is described as above.
A further assay addresses HLA-A*02:11. The description is as above.
Assay [5] deals with HLA-A*03:01. The assay is described as above.
For a further assay, the target named is HLA-A*68:02. The assay is described as above.
The target in the next assay is HLA-A*29:02. The description is as above.
The target of assay [6] is HLA-A*03:01. In words: IEDB peptide-MHC binding, purified MHC/competitive/fluorescence; ≥ and ≤ were set here for values at or beyond the usual limits of such assays. The conditions noted are these: source organism: Vaccinia virus Copenhagen.
The next assay has as its target HLA-A*11:01. Described as above. The conditions noted are these: source organism: Vaccinia virus Copenhagen.
[7] abbreviates: source organism: Sudan ebolavirus.
Setting [8] is: source organism: Entamoeba histolytica HM-1:IMSS.
Setting [9] is: source organism: Zaire ebolavirus.
The mark [10] stands for this setting: source organism: Ravn virus - Ravn, Kenya, 1987.
Setting [11] is: source organism: Vaccinia virus Copenhagen.
The mark [12] stands for this setting: source organism: Orthohantavirus sinnombreense.

For WSHRVTSPK, the figures for the Kd with HLA-A*01:01 (source organism: Vibrio cholerae) and in the assay with HLA-A*30:01 were at least 20 µM and 0.05 µM, respectively.
Take QLKSVGLNL: the IC50 (usually the concentration that inhibits the measured activity by half) in the assay with HLA-B*07:02 (setting [7]) came to 6.4 µM; in the assay with HLA-B*15:01 [1] it was 14.4 µM; with HLA-A*24:02 (setting [7]) it was 24.5 µM; with HLA-A*02:01 [2] it was 7.56 µM.
For QYIHLLCNK, the Kd (as a rule, the free concentration of one partner at which half of the binding sites on the other are occupied at equilibrium, for simple one-to-one binding) with HLA-A*23:01 (setting [8]) stood at 0.2 µM; with HLA-A*24:03 (setting [8]) it was 1.11 µM.
In the case of HSGFIYFGK, the Kd was 0.797 µM with HLA-A*31:01; at least 20 µM with HLA-A*26:01 (setting [9]); at least 20 µM in the assay with HLA-B*27:03 (setting [9]); at least 20 µM with HLA-B*57:01 (setting [9]); at least 20 µM in the assay with HLA-B*46:01 (setting [9]); at least 20 µM in the assay with HLA-B*15:01 [3]. Besides, the Kd with HLA-B*15:17, with HLA-A*02:01 [4] (setting [9]), with HLA-B*18:01 (setting [9]), with HLA-A*69:01 (setting [9]), with HLA-B*51:01 (setting [9]) and with HLA-B*39:01 (setting [9]) was at least 20 µM in each case. The Kd with HLA-A*02:19 (setting [10]), in the assay with HLA-A*02:16 (setting [10]), with HLA-A*02:12 (setting [10]), with HLA-A*23:01 (setting [10]), with HLA-A*02:03 (setting [10]) and in the assay with HLA-A*02:11 (setting [10]) was at least 20 µM each time. The Kd is at least 20 µM with HLA-A*24:03 (setting [10]), 3.47 µM with HLA-A*03:01 [5] (source organism: Sudan ebolavirus - Uganda (2000)), at least 20 µM in the assay with HLA-A*68:02 (setting [10]) and at least 20 µM with HLA-A*29:02 (setting [10]).
On to KITFALKKL, for which the IC50 amounted to 61.2 µM in the assay with HLA-B*07:02 (setting [11]), 34.8 µM with HLA-A*24:02 (setting [11]), 11.3 µM with HLA-A*03:01 [6] and 19.3 µM with HLA-A*11:01.
Regarding HTVGLGQGY, the Kd in the assay with HLA-A*26:01 (setting [12]) was 0.0021 µM; in the assay with HLA-B*27:03 (setting [12]), at least 20 µM; in the assay with HLA-B*57:01 (setting [12]) it was at least 20 µM; with HLA-B*46:01 (setting [12]) it was at least 20 µM; in the assay with HLA-A*02:01 [4] (setting [12]), at least 20 µM; with HLA-B*18:01 (setting [12]), at least 20 µM. Moreover, the Kd in the assay with HLA-A*69:01 (setting [12]), in the assay with HLA-B*51:01 (setting [12]), in the assay with HLA-B*39:01 (setting [12]), in the assay with HLA-A*02:19 (source organism: Choclo virus), in the assay with HLA-A*02:16 (source organism: Choclo virus) and with HLA-A*02:12 (source organism: Choclo virus) was at least 20 µM throughout. Also, the Kd with HLA-A*23:01 (source organism: Choclo virus) is at least 20 µM; with HLA-A*02:03 (source organism: Choclo virus) it was at least 20 µM; in the assay with HLA-A*01:01 (source organism: Orthohantavirus andesense) it was at least 5 µM; with HLA-A*02:11 (source organism: Choclo virus), at least 20 µM; with HLA-A*24:03 (source organism: Choclo virus) it was at least 20 µM; with HLA-A*03:01 [5] (source organism: Choclo virus), at least 20 µM.
QTEPKTSVV: the Kd with HLA-A*26:01 (setting [9]), in the assay with HLA-B*27:03 (setting [9]), in the assay with HLA-B*57:01 (setting [9]), with HLA-B*46:01 (setting [9]), in the assay with HLA-B*15:01 [3] and in the assay with HLA-B*15:17 was at least 20 µM throughout. Also, the Kd with HLA-A*02:01 [4] (setting [9]), with HLA-B*18:01 (setting [9]), in the assay with HLA-B*51:01 (setting [9]), in the assay with HLA-B*39:01 (setting [9]), in the assay with HLA-A*02:19 (setting [9]) and with HLA-A*02:12 (setting [9]) was at least 20 µM in each case. The Kd with HLA-A*23:01 (setting [9]) is at least 20 µM; in the assay with HLA-A*02:03 (setting [9]), at least 20 µM; with HLA-A*01:01 (source organism: Ebola virus - Eckron (Zaire, 1976)), 16.4 µM; with HLA-A*02:11 (setting [9]) it was at least 20 µM; with HLA-A*24:03 (setting [9]), at least 20 µM; with HLA-A*03:01 [5] (setting [9]), at least 20 µM. Moreover, the Kd in the assay with HLA-A*68:02 (setting [9]) and in the assay with HLA-A*29:02 (setting [9]) was at least 20 µM each time.
